Measured values published in article PMC6420074 (Nature metabolism, 2019).

T1: extracellular domain of Tfr2 (Tfr2-ECD), recombinant His-MBP-c3-Tfr2-ECD (murine, UniProt Q9JKX3 103-798)
T1 sequence: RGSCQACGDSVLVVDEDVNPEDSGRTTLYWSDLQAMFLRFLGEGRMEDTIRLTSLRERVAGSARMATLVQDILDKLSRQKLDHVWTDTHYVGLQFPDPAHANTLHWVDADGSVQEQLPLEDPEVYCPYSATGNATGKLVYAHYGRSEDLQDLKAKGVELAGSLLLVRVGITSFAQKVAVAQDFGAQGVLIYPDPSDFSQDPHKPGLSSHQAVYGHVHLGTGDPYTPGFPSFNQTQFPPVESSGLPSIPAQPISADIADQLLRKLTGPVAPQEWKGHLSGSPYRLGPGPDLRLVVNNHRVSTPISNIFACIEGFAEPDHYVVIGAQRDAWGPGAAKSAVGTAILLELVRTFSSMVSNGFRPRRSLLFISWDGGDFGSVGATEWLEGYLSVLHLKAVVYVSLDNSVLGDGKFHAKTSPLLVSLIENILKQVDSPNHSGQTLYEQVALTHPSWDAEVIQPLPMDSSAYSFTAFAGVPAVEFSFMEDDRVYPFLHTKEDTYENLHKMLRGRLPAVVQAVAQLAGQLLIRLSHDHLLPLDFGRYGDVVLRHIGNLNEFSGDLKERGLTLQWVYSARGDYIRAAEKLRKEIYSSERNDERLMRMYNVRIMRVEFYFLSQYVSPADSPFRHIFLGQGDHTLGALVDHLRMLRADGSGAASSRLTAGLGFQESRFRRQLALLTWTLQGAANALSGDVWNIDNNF


Experiments:
[1] = target: T1, extracellular domain of Tfr2 …; experiment: SPR
[2] = target: T1, extracellular domain of Tfr2 …; experiment: SPR; remark: listed apart in the source

Binder | Kd [1] [nM] | fold binding level against holo-Tf [2] [fold]
BMP-2 (ligand) QAKHKQRKRLKSSCKRHPLYVDFSDVGWNDWIVAPPGYHAFYCHGECPFPLADHLNSTNHAIVQTLVNSVNSKIPKACCVPTELSAISMLYLDENEKVVLKNYQDMVVEGCGCR | 488 ± 37 | > 10
BMP-4 (ligand) SPKHHSQRARKKNKNCRRHSLYVDFSDVGWNDWIVAPPGYQAFYCHGDCPFPLADHLNSTNHAIVQTLVNSVNSSIPKACCVPTELSAISMLYLDEYDKVVLKNYQEMVVEGCGCR | 409 ± 39 | –
